± gives the standard error. For some assays here: Fewer inactive variants are shown than the library holds.
B1: glmS ribozyme (parent)
chain: AUAAAAGCGCCAGAACUACAGAAAUGUAGUUGACGAGGAGGAGGUUUAUCGAAUUUUCGGCGGAUGCCUCCAAA

Key:
Conditions in all cases: with glucosamine-6-phosphate
glucosamine-6-phosphate [1] = variants of: B1; assay: kcat; higher = faster cleavage; RNA array
How it was run: (§1)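 Sequenced MiSeq chips were the platform: E. coli RNA polymerase transcribed barcoded ribozyme variants on them in situ, and a hybridised Cy3 probe tracked these at 37 °C. After glucosamine-6-phosphate (40 μM to 10 mM) in HEPES/KCl/Mg(OAc)2 buffer was flowed in, tiles were imaged over ~14 h. Signals normalised to baseline and to non-cleaving reference variants were reduced to per-tile medians and fit to one- or two-exponential decays to obtain kobs. kcat and KM were derived through weighted Michaelis–Menten fits across concentrations.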

glucosamine-6-phosphate [2] = variants of: B1; assay: self-cleavage kobs at 40 uM GlcN6P; higher = faster cleavage; RNA array
How it was run: as §1

glucosamine-6-phosphate [3] = variants of: B1; assay: self-cleavage kobs at 160 uM GlcN6P; higher = faster cleavage; RNA array
How it was run: as §1

glucosamine-6-phosphate [4] = variants of: B1; assay: self-cleavage kobs at 640 uM GlcN6P; higher = faster cleavage; RNA array
How it was run: as §1

glucosamine-6-phosphate [5] = variants of: B1; assay: self-cleavage kobs at 2500 uM GlcN6P; higher = faster cleavage; RNA array
How it was run: as §1

glucosamine-6-phosphate [6] = variants of: B1; assay: self-cleavage kobs at 10000 uM GlcN6P; higher = faster cleavage; RNA array
How it was run: as §1

glucosamine-6-phosphate [7] = variants of: B1; assay: KM; higher = weaker cofactor use; RNA array
How it was run: as §1

Variant | kcat (glucosamine-6-phosphate [1]) [s⁻¹] | self-cleavage kobs at 40 uM GlcN6P (glucosamine-6-phosphate [2]) [s⁻¹] | self-cleavage kobs at 160 uM GlcN6P (glucosamine-6-phosphate [3]) [s⁻¹] | self-cleavage kobs at 640 uM GlcN6P (glucosamine-6-phosphate [4]) [s⁻¹] | self-cleavage kobs at 2500 uM GlcN6P (glucosamine-6-phosphate [5]) [s⁻¹] | self-cleavage kobs at 10000 uM GlcN6P (glucosamine-6-phosphate [6]) [s⁻¹] | KM (glucosamine-6-phosphate [7]) [µM]
C67U C70A | 1.69e-05 ± 4.5e-06 |  |  |  |  |  | 
A6U A33G G41A A64U |  | < 1e-05 | < 1e-05 | < 1e-05 | < 1e-05 |  | 
A6C U56C |  | < 1e-05 | < 1e-05 |  |  |  | 
A6C G9A |  | < 1e-05 |  |  |  | < 1e-05 | 
A52C U65G |  |  |  |  |  |  | 197 ± 67
C70G C71A | 5.66e-05 ± 1.4e-05 |  | 8.13e-05 ± 1.8e-05 | 7.38e-05 ± 1.2e-05 | 6.86e-05 ± 1.8e-05 | 3.7e-05 ± 9.8e-06 | 
A6G A12C U45G C58U G59C G62A C68G |  | < 1e-05 |  |  |  | < 1e-05 | 
A6G U65C |  | < 1e-05 | < 1e-05 | < 1e-05 | < 1e-05 | < 1e-05 | 
A6U C10A C11G A12C U54C |  | < 1e-05 |  |  |  | < 1e-05 | 
A6C A12U U30A A48C |  | < 1e-05 |  |  |  | < 1e-05 | 
G66U U69A | 0.000163 ± 3e-05 |  | 7.46e-05 ± 3e-05 | 8.9e-05 ± 1.5e-05 | 0.000118 ± 2.1e-05 | 0.000191 ± 3.2e-05 | 
A6G A15C A53G |  | < 1e-05 |  |  | 6.25e-05 ± 2e-05 |  | 
A6C U45C G63A |  | < 1e-05 |  |  | < 1e-05 |  | 
A6C A12U G29A C68G |  | < 1e-05 |  | < 1e-05 | < 1e-05 |  | 
A6U A12U G32U G60U |  | < 1e-05 |  |  |  |  | 
G66C C71G | 4.2e-05 ± 2.4e-06 |  |  | 4e-05 ± 1.4e-05 | 4.07e-05 ± 1.1e-05 | 3.81e-05 ± 1.5e-05 | 108 ± 50
A6U G35C G51C U65G |  | < 1e-05 |  |  |  |  | 
G66C U69G | 5.5e-05 ± 1.9e-05 |  | 4.18e-05 ± 1.2e-05 | 8.02e-05 ± 1.2e-05 | 6.24e-05 ± 1.2e-05 |  | 
A6G C67A C68U |  | < 1e-05 |  |  |  |  | 
A6C C11U |  | < 1e-05 | < 1e-05 | < 1e-05 |  |  | 
A6C C11A |  | < 1e-05 | < 1e-05 |  | < 1e-05 |  | 
A6G G44U G62U G63A U69A |  | < 1e-05 | < 1e-05 | < 1e-05 | < 1e-05 | < 1e-05 | 
A6G G32C |  | < 1e-05 | < 1e-05 | < 1e-05 |  | < 1e-05 | 

Variant | kcat (glucosamine-6-phosphate [1]) [s⁻¹] | self-cleavage kobs at 40 uM GlcN6P (glucosamine-6-phosphate [2]) [s⁻¹] | self-cleavage kobs at 160 uM GlcN6P (glucosamine-6-phosphate [3]) [s⁻¹] | self-cleavage kobs at 640 uM GlcN6P (glucosamine-6-phosphate [4]) [s⁻¹] | self-cleavage kobs at 2500 uM GlcN6P (glucosamine-6-phosphate [5]) [s⁻¹] | self-cleavage kobs at 10000 uM GlcN6P (glucosamine-6-phosphate [6]) [s⁻¹] | KM (glucosamine-6-phosphate [7]) [µM]
U54G U56A G63U |  |  |  |  |  |  | 1560 ± 740
A6G A52G A53G C67G |  | 6.36e-05 ± 3.1e-05 |  | 0.00028 ± 0.00011 |  |  | 
A6U A33U A36G G38C U46G C61U |  | < 1e-05 |  |  |  |  | 
A6U A14U G35C A39U U55A C58A |  | < 1e-05 |  |  | < 1e-05 | < 1e-05 | 
A6U C50A |  | < 1e-05 | < 1e-05 | < 1e-05 |  |  | 
A6G C50G A64U |  | 7.9e-05 ± 3.2e-05 |  |  |  | 0.000157 ± 2.5e-05 | 
A1U U2G A3G C8G A12U G63C C68A |  | < 1e-05 |  |  | < 1e-05 | < 1e-05 | 
A6G U31A U46G C68G |  | < 1e-05 |  |  |  | < 1e-05 | 
A6C G60U |  | < 1e-05 | < 1e-05 | < 1e-05 | < 1e-05 | < 1e-05 | 
A6U A52C |  | < 1e-05 | < 1e-05 | < 1e-05 | < 1e-05 | < 1e-05 | 
A6C A15C U54C C71U |  | < 1e-05 |  |  |  |  | 
A6C G37C A39G G40U G41U |  | < 1e-05 | < 1e-05 | < 1e-05 | < 1e-05 |  | 
A6G G40U A52G U65G |  | < 1e-05 |  |  |  | < 1e-05 | 
A6G G62U |  | < 1e-05 | < 1e-05 | < 1e-05 | < 1e-05 | < 1e-05 | 
A12C A36U |  |  |  |  |  |  | 56.2 ± 26
A6G C50U C58U U65G |  | < 1e-05 |  | < 1e-05 |  | < 1e-05 | 
A6C A12C G59C |  | < 1e-05 |  | < 1e-05 |  | < 1e-05 | 
C68U C70U | 2.24e-05 ± 7.8e-06 |  |  |  | 3.68e-05 ± 7.6e-06 | 1.88e-05 ± 3.8e-06 | 
A6C C50G C61G |  | 0.000119 ± 3.4e-05 | 0.000251 ± 7.8e-05 | 0.00102 ± 0.00025 | 0.000289 ± 0.0001 | 0.000343 ± 6.1e-05 | 
A6U C34G |  | < 1e-05 | < 1e-05 |  | < 1e-05 | < 1e-05 | 
A6C G29C A36G |  | < 1e-05 | < 1e-05 |  | < 1e-05 | < 1e-05 | 
A6G A12G U31A U54A C71A |  | < 1e-05 | < 1e-05 | < 1e-05 | < 1e-05 |  | 

Source: the supplement of paper PMC7125110
